Key:
[1] = target: POT1-TPP1 E215K complex (wild-type POT1 with TPP1N E215K) (human) (UniProt Q9NUX5)
[2] = target: POT1-TPP1 E169K complex (wild-type POT1 with TPP1N E169K) (human) (UniProt Q9NUX5)
[3] = target: wild-type POT1-TPP1 complex (POT1-TPP1N) (human) (UniProt Q9NUX5)
[4] = target: wild-type POT1-TPP1 complex (POT1-TPP1N) (human) (UniProt Q9NUX5); remark: listed apart in the source
[5] = target: POT1-TPP1 E215K complex (wild-type POT1 with TPP1N E215K) (human) (UniProt Q9NUX5); remark: listed apart in the source
[6] = target: POT1-TPP1 E169K complex (wild-type POT1 with TPP1N E169K) (human) (UniProt Q9NUX5); remark: listed apart in the source
GFP-TPP1-OB-LacI (human) = test: LacI-LacO tethering assay (co-localisation of GFP and mCherry foci); GFP-TPP1-OB-LacI tethered to a single LacO array on chromosome 1 of U2OS 2-6-3 cells, co-transfected with mCherry-hTERT and hTR; fixed cells, intrinsic fluorescence; fraction of nuclei with co-localised foci (n = 3, 117-176 nuclei total)
Sequence of GFP-TPP1-OB-LacI (human) (Q96AP0 whole entry): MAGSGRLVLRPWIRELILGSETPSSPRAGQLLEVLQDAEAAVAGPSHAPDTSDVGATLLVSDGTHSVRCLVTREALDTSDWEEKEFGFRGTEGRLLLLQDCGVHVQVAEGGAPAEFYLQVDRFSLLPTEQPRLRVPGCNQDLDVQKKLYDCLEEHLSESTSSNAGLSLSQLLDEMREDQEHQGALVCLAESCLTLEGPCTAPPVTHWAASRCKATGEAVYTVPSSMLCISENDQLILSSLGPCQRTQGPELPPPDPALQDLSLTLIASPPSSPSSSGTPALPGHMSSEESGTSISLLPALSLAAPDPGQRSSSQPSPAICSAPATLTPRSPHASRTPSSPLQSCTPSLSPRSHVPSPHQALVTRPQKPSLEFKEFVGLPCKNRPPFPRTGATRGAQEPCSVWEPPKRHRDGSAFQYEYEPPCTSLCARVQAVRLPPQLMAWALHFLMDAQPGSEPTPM

In the case of “hTERT K78E;R132E telomerase (ZZ-TEV-3xFlag-hTERT with hTR) (from UniProt O14746 1-1132) (enzyme)”, the RAP stimulation by POT1-TPP1 relative to wild-type telomerase and wild-type TPP1 (direct telomerase activity assay) [1] is reported as < 23%, the RAP stimulation by POT1-TPP1 relative to wild-type telomerase and wild-type TPP1 (direct telomerase activity assay) [2] is reported as < 23% and the RAP stimulation by PT % of WT (direct telomerase activity assay) [3] is reported as 18 % of WT.

In the case of “hTERT R120E telomerase (ZZ-TEV-3xFlag-hTERT R120E with hTR) (from UniProt O14746 1-1132) (enzyme)”, the RAP stimulation by PT % of WT (direct telomerase activity assay) [3] is reported as 55 % of WT.

In the case of “hTERT V144M telomerase (ZZ-TEV-3xFlag-hTERT V144M with hTR) (from UniProt O14746 1-1132) (enzyme)”, the RAP stimulation by PT % of WT (direct telomerase activity assay) [3] is reported as 44 % of WT, the POT1-TPP1 RAP stimulation compared to wild-type telomerase (direct telomerase activity assay) [4] is reported as 61% and the RAP stimulation by POT1-TPP1 relative to wild-type telomerase with wild-type POT1-TPP1 (direct telomerase activity assay) [5] is reported as 37%. It also gave an RAP stimulation by POT1-TPP1 relative to wild-type telomerase with wild-type POT1-TPP1 (direct telomerase activity assay) [6] of 28%.

For “hTERT K78E telomerase (ZZ-TEV-3xFlag-hTERT K78E with hTR) (from UniProt O14746 1-1132) (enzyme)”, the RAP stimulation by POT1-TPP1 relative to wild-type telomerase and wild-type TPP1 (direct telomerase activity assay) [1] was 98%, the RAP stimulation by POT1-TPP1 relative to wild-type telomerase and wild-type TPP1 (direct telomerase activity assay) [2] was < 24% and the RAP stimulation by PT % of WT (direct telomerase activity assay) [3] was 68 % of WT.

For “hTERT R142E telomerase (ZZ-TEV-3xFlag-hTERT R142E with hTR) (from UniProt O14746 1-1132) (enzyme)”, the RAP stimulation by PT % of WT (direct telomerase activity assay) [3] was 103 % of WT.

“hTERT K78E;R120E telomerase (ZZ-TEV-3xFlag-hTERT with hTR) (from UniProt O14746 1-1132) (enzyme)” was tested, and the RAP stimulation by PT % of WT (direct telomerase activity assay) [3] was 38 % of WT.

“mCherry-hTERT R132E (with hTR) (from UniProt O14746 1-1132) (enzyme)” was tested, and the fraction of TPP1-OB-fold domain foci showing telomerase signal (GFP-TPP1-OB-LacI (human)) was 30%.

In the case of “wild-type telomerase (ZZ-TEV-3xFlag-hTERT with hTR) (from UniProt O14746 1-1132) (enzyme)”, the RAP stimulation by POT1-TPP1 relative to wild-type telomerase and wild-type TPP1 (direct telomerase activity assay) [1] is reported as 78% and the RAP stimulation by POT1-TPP1 relative to wild-type telomerase and wild-type TPP1 (direct telomerase activity assay) [2] is reported as < 24%.

“mCherry-hTERT wild type (with hTR) (from UniProt O14746 1-1132) (enzyme)” gave a fraction of nuclei with co-localisation (GFP-TPP1-OB-LacI (human)) of 90%.

“hTERT R87E;R91E;K94E telomerase (ZZ-TEV-3xFlag-hTERT with hTR) (from UniProt O14746 1-1132) (enzyme)” was tested, and the RAP stimulation by PT % of WT (direct telomerase activity assay) [3] was 61 % of WT.

With “hTERT K78A telomerase (ZZ-TEV-3xFlag-hTERT K78A with hTR) (from UniProt O14746 1-1132) (enzyme)” the RAP stimulation by PT % of WT (direct telomerase activity assay) [3] was 88 % of WT.

“mCherry-hTERT K78E (with hTR) (from UniProt O14746 1-1132) (enzyme)” gave a fraction of TPP1-OB-fold domain foci showing telomerase signal (GFP-TPP1-OB-LacI (human)) of 55%.

For “hTERT R132E telomerase (ZZ-TEV-3xFlag-hTERT R132E with hTR) (from UniProt O14746 1-1132) (enzyme)”, the RAP stimulation by POT1-TPP1 relative to wild-type telomerase and wild-type TPP1 (direct telomerase activity assay) [1] was < 23%, the RAP stimulation by POT1-TPP1 relative to wild-type telomerase and wild-type TPP1 (direct telomerase activity assay) [2] was < 23% and the RAP stimulation by PT % of WT (direct telomerase activity assay) [3] was 24 % of WT.

With “hTERT R72E telomerase (ZZ-TEV-3xFlag-hTERT R72E with hTR) (from UniProt O14746 1-1132) (enzyme)” the RAP stimulation by PT % of WT (direct telomerase activity assay) [3] was 91 % of WT.

— paper PMC4359370
